Source: patent publication US12139520B2 (priority 2020, dated 2024)
Numbered stars: 1 amine (or outer) side, 2 acyl side, 3 side chain; on linkers, the order of the positions; unused ones are H or OH. Bridge positions count the residues as written; N and C are the ends. Square brackets hold non-standard residues; d marks the D form. Side chains are listed from the residue outwards. Ends that are not written are not given here. * marks the point of attachment. C20 diacid = O=C(O)CCCCCCCCCCCCCCCCCCC(=O)*; γGlu = O=C(O)[C@H](CCC(=O)[*:2])N[*:1]; Hyp = O=C(O)[C@@H]1C[C@@H](O)CN1; Cit = NC(=O)NCCC[C@H](N)C(=O)O; AEEA = NCCOCCOCC(=O)O

T1: hAMY3R (human, UniProt P30988)
T1 sequence 1: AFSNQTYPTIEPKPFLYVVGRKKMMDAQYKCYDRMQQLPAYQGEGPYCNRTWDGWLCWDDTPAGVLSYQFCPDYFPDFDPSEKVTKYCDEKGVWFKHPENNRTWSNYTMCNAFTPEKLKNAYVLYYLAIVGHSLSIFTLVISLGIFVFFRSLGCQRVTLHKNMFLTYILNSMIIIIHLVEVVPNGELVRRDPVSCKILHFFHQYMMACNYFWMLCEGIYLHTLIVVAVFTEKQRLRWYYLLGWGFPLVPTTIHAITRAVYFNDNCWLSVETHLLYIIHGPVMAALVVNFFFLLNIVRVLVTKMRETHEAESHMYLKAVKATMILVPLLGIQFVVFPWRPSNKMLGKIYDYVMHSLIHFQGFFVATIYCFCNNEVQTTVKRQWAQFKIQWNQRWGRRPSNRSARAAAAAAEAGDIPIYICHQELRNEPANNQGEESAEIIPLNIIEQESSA
T1 sequence 2: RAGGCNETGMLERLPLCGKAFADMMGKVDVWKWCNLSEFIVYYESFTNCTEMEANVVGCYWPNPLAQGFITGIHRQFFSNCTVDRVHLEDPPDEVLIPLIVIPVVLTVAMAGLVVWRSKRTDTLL


Columns and labels:
[1] = molecular target: T1, hAMY3R; assay: cell-based or functional assay
[2] = molecular target: hAM1R (human, UniProt Q16602); assay: cell-based or functional assay

Binder	hAMY3R EC50 (cAMP) [1] [nM]	hAM1R EC50 (cAMP) [2] [nM]
GCRFGTCTVQRLAHQIYQFTDKDKDNVAPRSNVGPQG[Hyp]-NH2 (disulfide 2-7 (inferred); ends not checked) [SEQ ID NO: 135]	0.033	68.4
KCNTATCTVQRLAEQIK([AEEA-AEEA-γGlu-C20 diacid])QFTDKDKDNVAPPTNVGSNG[Hyp]-NH2 (disulfide 2-7 (inferred); ends not checked) [SEQ ID NO: 136]	0.033	> 5000
GCRTGTCTVQRLAHQIYQFTDKDKDNVAPRSNVGPQGY [SEQ ID NO: 138]	0.035	2980
GCRTGTCTVQRLAHQIYQFTDKDKDNVAPRSKVGPNG[Hyp]-NH2 (disulfide 2-7 (inferred); ends not checked) [SEQ ID NO: 139]	0.035	2980
GCRFGTCTVQRLAHQIYQFTDKDKDNVAPRTNISPQGY [SEQ ID NO: 140]	0.036	31.4
GCRFGTCTVQRLAHQIYQFTDKDKDNVAPRTNISPQG[Hyp]-NH2 (disulfide 2-7 (inferred); ends not checked) [SEQ ID NO: 141]	0.036	258
GCRTGTCTVQRLAHQIYQFTDKDKDNVAPRTNIGPNGY [SEQ ID NO: 142]	0.036	2980
GCRTGTCTVQRLAHQIYQFTDKDKDNVAPRTKVGPQG[Hyp]-NH2 (disulfide 2-7 (inferred); ends not checked) [SEQ ID NO: 143]	0.038	2980
{C20 diacid-γGlu}-KCNTATCTVQRLAEQIAQFTDKDKDPVAPPTNVGSNG[Hyp]-NH2 (disulfide 2-7 (inferred); ends not checked) [SEQ ID NO: 144]	0.038	> 5000
KCNTSTCTVARLADQITQFSDKDKANVSPPTEVGPNS[Hyp]-NH2 (disulfide 2-7 (inferred); ends not checked) [SEQ ID NO: 15]	0.007	> 5000
GCRIGTCTVQRLAHQIYQFTDKFKDNVAPRSKISPQT[Hyp]-NH2 (disulfide 2-7 (inferred); ends not checked) [SEQ ID NO: 147]	0.04	3110
KCNTATCATQRLANFLVHSSNNFGAILSSTKIGSNGY [SEQ ID NO: 148]	0.04	> 5000
KCNTATCATQRLANFLVHSSNNFGAILPSTKVGPNGY [SEQ ID NO: 149]	0.04	> 5000
GCRTGTCTVQRLAHQIYQFTDKDKDNVAPRSNIGPNG[Hyp]-NH2 (disulfide 2-7 (inferred); ends not checked) [SEQ ID NO: 151]	0.041	44.9
GCRFGTCTVQRLAHQIYQFTDKDKDNVAPRSKVGPQG[Hyp]-NH2 (disulfide 2-7 (inferred); ends not checked) [SEQ ID NO: 152]	0.041	213
GCRFGTCTVQRLAHQIYQFTDKDKDNVAPRTKVSPQGY [SEQ ID NO: 155]	0.045	116
GCRFGTCTVQRLANFLYQFTDKDKDNVAPRTNVGPQGY [SEQ ID NO: 16]	0.008	125
GCRTGTCTVQRLAHQIYQFTDKDKDNVAPRSKIGPNG[Hyp]-NH2 (disulfide 2-7 (inferred); ends not checked) [SEQ ID NO: 157]	0.047	2980

More lines, now with the values ahead:

hAMY3R EC50 (cAMP) [1] [nM]	hAM1R EC50 (cAMP) [2] [nM]	Binder
0.007	> 5000	KCNTATCTVQRLAHQIAQFTDKDKDNVAPPTNVGSNG[Hyp]-NH2 (disulfide 2-7 (inferred); ends not checked) [SEQ ID NO: 14]
0.034	> 5000	{C20 diacid-γGlu}-KCNTATCTVARLAHQINQFTDKDKDPVAPPTNVGSNG[Hyp]-NH2 (disulfide 2-7 (inferred); ends not checked) [SEQ ID NO: 137]
0.039	2980	GCRFGTCTVQRLAHQIYQFTDKDKDNVAPRSNVSPQG[Hyp]-NH2 (disulfide 2-7 (inferred); ends not checked) [SEQ ID NO: 145]
0.04	2980	GCRFGTCTVQRLAHQIYQFTDKDKDNVAPRTKISPQG[Hyp]-NH2 (disulfide 2-7 (inferred); ends not checked) [SEQ ID NO: 146]
0.04	> 5000	GCRWGTCTVQRLAHQIYQFTDKDKDNVAPRSKISPQT[Hyp]-NH2 (disulfide 2-7 (inferred); ends not checked) [SEQ ID NO: 150]
0.01	> 5000	KCNTATCATQRLANFLVHSSNNFGAILSSTNVGSNTY (ligand, disulfide 2-7) [hAMY1-37]
0.041	> 5000	{C20 diacid-γGlu}-KCNTATCTVQ[Cit]LAEQIAQFTDKDKDNVAPPTNVGSNG[Hyp]-NH2 (disulfide 2-7 (inferred); ends not checked) [SEQ ID NO: 153]
0.042	2980	GCRFGTCTVQRLAHQIYQFTDKDKDNVAPRSKISPQGY [SEQ ID NO: 154]
0.047	2980	GCRTGTCTVQRLAHQIYQFTDKDKDNVAPRTKVGPQGY [SEQ ID NO: 156]
0.048	2980	GCRFGTCTVQRLAHQIYQFTDKDKDNVAPRSNISPQG[Hyp]-NH2 (disulfide 2-7 (inferred); ends not checked) [SEQ ID NO: 158]
